B1: MLL5 (parent)
chain: HDDGYMICCDKCSVWQHIDCMGID
B2: C19orf51 (parent)
chain: FAPQTGARPSETFARFCKSQESAL

Variants of: B1
Experiment: protein stability index of a GFP-peptide fusion (GPS, HEK-293T) (PSI 1-6); higher = more stable
Conditions: c terminus: a fixed tail appended
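Further: lentivirally expressed fusions sorted by FACS into six bins by GFP to DsRed ratio, PSI derived from sequencing read proportions per bin multiplied by bin number.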

Protein stability index: each site, then its substitutions
D2: V 2.02; M 1.92; W 1.84; F 2.23; P 2.16; K 2.69; I 2.87; S 2.16; L 3.26; G 2.05; A 1.76; T 2.99; Y 1.93; R 2.02; E 2.53; N 1.71; C 1.89; H 2.87; Q 2.04
D10: P 2.36; M 2.95; K 2.51; E 2.41; C 2.71; Q 2.29; F 2.44; V 3.07; N 2.41; I 3.54; R 2.4; G 1.92; Y 2.88; A 1.71; S 2.72; T 1.69
H1: Y 3.85; W 2.63; L 2.47; D 2.83; P 1.86; A 2.42; T 2.19; S 2.81; E 2.5; V 2.61; I 1.98; F 1.66; G 2.25; M 1.57; R 2.29; K 2.95; C 2.1; Q 2.24; N 2.73
D3: E 2.95; M 1.69; T 2.41; P 2.65; V 2.75; F 1.53; Y 1.91; H 2.01; Q 2.43; R 2.02; I 1.63; K 1.88; L 1.01; C 2.06; N 2.09; W 1.88; G 2.47; A 2.13; S 1.69
I7: F 2.72; P 2.71; M 2.29; G 3.82; R 2.45; C 3.79; E 3.23; N 3.12; W 3.09; L 2.06; Y 2.77; H 3.55; T 2.93; A 3.2; V 2.79; K 3.45; Q 3.51; D 3.42
M6: H 4.05; K 2.43; T 2.41; I 2.65; R 3.35; C 3.2; A 3.37; V 3.1; S 2.91; L 2.59; D 2.96; G 2.4; Q 2.46; E 2.79; P 2.96; W 2; Y 2.14; N 3.14; F 2.22
C8: G 2.59; W 1.86; T 2.66; M 1.68; R 2.51; H 2.37; V 1.64; D 3.19; P 3.12; F 1.56; E 2.73; I 1.9; Y 2.12; K 2.25; S 1.83; Q 2.96; L 2.46; A 3.27; N 2.43
C12: H 2.65; N 3.05; L 1.7; S 3.01; T 2.74; E 3.63; A 2.71; P 2.56; F 1.76; M 2.05; D 3.54; Q 2.46; R 2.28; G 2.67; I 1.92; Y 2.91; V 1.93; K 3.46; W 2.32
G4: C 2.53; E 2.99; R 2.73; M 1.74; V 2.1; P 2.69; N 2.05; A 2.04; K 2.16; D 2.61; T 2.04; H 2.29; Y 2.48; S 2.38; L 1.64; Q 2.2; W 2.56; I 1.51; F 1.94
C9: D 3.74; K 2.85; E 3.42; A 2.56; L 2.12; F 2.43; Q 3; S 3.81; V 2.67; R 2.76; P 3.03; T 3.75; N 2.77; Y 1.47; M 1.99; I 2.1; H 2.86; W 2.16; G 3.81
K11: I 2; L 2.23; D 2.79; H 2.1; E 2.39; A 1.82; R 1.85; V 1.5; F 1.05; S 2.68; N 2.31; Y 1.86; M 1.55; T 1.81; G 3.03; P 2.4; Q 2.94; C 3.26
S13: F 1.8; A 1.73; E 2.55; L 2.18; C 3.19; M 2.45; P 2.7; G 3.48; D 2.18; N 2.56; H 2.09; K 2.43
Y5: E 3.39; W 2.03; D 3.14; V 2.96; F 1.74; Q 3.19; N 3.3; L 2.78; G 3.53; T 3.96; K 3.53; R 3.42; P 2.9; I 2.98; S 2.84; H 3.79; C 3.04; M 2.83; A 3.46

Variants of: B2
Experiment: as above
Conditions: c terminus: a fixed tail appended

Protein stability index of substitutions, site by site:
E21: H 3.63; I 1.97; G 3; N 1.79; M 2.35; P 1.88; A 2.86; Y 2.22; K 1.85; Q 2.79; C 1.97; W 3.29; F 1.76; D 2.04; R 4.11
Q20: A 2.13; V 1.73; M 1.72; H 1.89; P 2.65; L 1.65; T 3.01; R 4.59; Y 2.31; I 2.92; D 2.51; E 2.48; G 1.84; K 1.99; C 3; N 1.76; F 1.73
S19: E 1.1; N 1.31; T 1.66; W 1.75; P 1.77; I 2.35; Q 1.43; A 2.85; C 3.45; H 4.27; R 5.04; G 2.82; K 2.35; D 2.2
K18: N 1.3; P 2.61; Q 1.81; L 2.2; S 2.39; V 2.45; T 2.6; Y 1.99
L24: H 1.83; K 2.02; R 4.53; Y 3.96; Q 1.23; G 2.81; F 3.1; E 3.37; T 2.27; N 2.58; C 3.32; A 3.59; P 1.23; D 1.88; M 1.56
S22: W 1; G 3.57; R 1.51; E 1.58; P 3.4; Y 1.93; D 2.04; I 3.24; H 1.98; L 2.08; T 1.88; V 1.8; F 2.18; C 2.31; K 1.33
A23: K 1.75; P 2.46; M 2.11; C 1.55; R 3.52; H 3.08; N 3.57; F 2.44; W 2.29; Q 1.82; L 2.84; T 2.07; V 1.68; G 2.32; I 1.89

Reference: the supplement of paper PMC10567573
